This passage reports activity results from patent publication US20240035008.

The data set relates to R2Tg (Taeniopygia guttata). Briefly: cell_activity. Conditions: homology-guided insertion without Cas9; RLE and RT dependent (Example 10 reports ~0.5%).

“TCCTGAGTCGTGCTGCGTCGACAACGGTAGTGACGCGTATTGCCTGGAGGGCGGACGCCGGCATTCGCCGCGTGGTTCCCAGCGACCTGTATCCCCTCGT (double strand) [NOLC1 target (homology arms)]” had an activity of 0.1%.
